Results: publication doi:10.1101/2023.06.17.545410 (bioRxiv, 2023)

Molecular target: T1, HsTHUMPD2 (purified) (human, UniProt Q9BTF0-1 1-503)
T1 sequence (looked up): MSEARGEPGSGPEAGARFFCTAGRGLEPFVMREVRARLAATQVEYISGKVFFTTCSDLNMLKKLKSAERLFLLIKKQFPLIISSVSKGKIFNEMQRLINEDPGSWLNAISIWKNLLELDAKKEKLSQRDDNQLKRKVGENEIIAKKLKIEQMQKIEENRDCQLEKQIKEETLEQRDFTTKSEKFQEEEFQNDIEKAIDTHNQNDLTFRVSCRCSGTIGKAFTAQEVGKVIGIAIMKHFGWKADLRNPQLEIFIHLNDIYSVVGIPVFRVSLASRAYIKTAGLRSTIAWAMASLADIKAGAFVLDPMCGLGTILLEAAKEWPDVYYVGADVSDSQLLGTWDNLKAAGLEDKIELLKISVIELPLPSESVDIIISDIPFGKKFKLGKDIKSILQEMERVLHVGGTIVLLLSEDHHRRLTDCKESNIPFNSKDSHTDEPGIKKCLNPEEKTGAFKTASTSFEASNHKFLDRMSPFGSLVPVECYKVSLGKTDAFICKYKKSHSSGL
Experiment: SEC

binding result: binds
B1: HsTRMT112 (purified) (natural protein, human, UniProt Q9UI30-1 1-125, looked up)
chain: MKLLTHNLLSSHVRGVGSRGFPLRLQATEVRICPVEFNPNFVARMIPKVEWSAFLEAADNLRLIQVPKGPVEGYEENEEFLRTMHHLLLEVEVIEGTLQCPESGRMFPISRGIPNMLLSEEETES
